These results are taken from PMC3893532.

A short description of this data set: confocal immunofluorescence, transfected hippocampal neurons. The following applies: glycan lost; control: wild-type seipin.

B1: seipin: N88S (protein)
parent chain: MVNDPPVPALLWAQEVGQVLAGRARRLLLQFGVLFCTILLLLWVSVFLYGSFYYSYMPTVSHLSPVHFYYRTDCDSSTTSLCSFPVANVSLTKGGRDRVLMYGQPYRVTLELELPESPVNQDLGMFLVTISCYTRGGRIISTSSRSVMLHYRSDLLQMLDTLVFSSLLLFGFAEQKQLLEVELYADYRENSYVPTTGAIIEIHSKRIQLYGAYLRIHAHFTGLRYLLYNFPMTCAFIGVASNFTFLSVIVLFSYMQWVWGGIWPRHRFSLQVNIRKRDNSRKEVQRRISAHQPGPEGQEESTPQSDVTEDGESPEDPSGTEGQLSEEEKPDQQPLSGEEELEPEASDGSGSWEDAALLTEANLPAPAPASASAPVLETLGSSEPAGGALRQRPTCSSS
Regarding B1, the localisation_or_trafficking entry is recorded as “changes”.

B2: seipin: S90L (protein)
parent chain: MVNDPPVPALLWAQEVGQVLAGRARRLLLQFGVLFCTILLLLWVSVFLYGSFYYSYMPTVSHLSPVHFYYRTDCDSSTTSLCSFPVANVSLTKGGRDRVLMYGQPYRVTLELELPESPVNQDLGMFLVTISCYTRGGRIISTSSRSVMLHYRSDLLQMLDTLVFSSLLLFGFAEQKQLLEVELYADYRENSYVPTTGAIIEIHSKRIQLYGAYLRIHAHFTGLRYLLYNFPMTCAFIGVASNFTFLSVIVLFSYMQWVWGGIWPRHRFSLQVNIRKRDNSRKEVQRRISAHQPGPEGQEESTPQSDVTEDGESPEDPSGTEGQLSEEEKPDQQPLSGEEELEPEASDGSGSWEDAALLTEANLPAPAPASASAPVLETLGSSEPAGGALRQRPTCSSS
Consider B2, for which the localisation_or_trafficking entry is “changes”.
